Several values for one entry are separate records, joined by “and”; a condition that tells them apart may be missing. Identical values can stand only once.
Columns and labels:
[1] = target: CXCR2 on THP-1 cells (human (endogenous in THP-1)) (UniProt P25025); assay: flow cytometry on cells; THP-1 cells incubated on ice with purified proteins for 30 min; bound protein detected with a fluorophore-conjugated anti-His tag antibody; FACS buffer (PBS, 1% FBS, 150 μM CaCl2); Fc receptors blocked with Human SeroBlock; single dose and a range of concentrations
CXCL1-Fc fusion protein = CXCL1-Fc fusion protein (UniProt P09341); assay: SDS-PAGE under reducing and non-reducing conditions; purified proteins separated under reducing and non-reducing conditions, Coomassie Blue staining
CXCR2 on THP-1 cells = CXCR2 on THP-1 cells (UniProt P25025); assay: flow cytometry on cells; details: THP-1 cells (CXCR2+), FITC-conjugated anti-6X His antibody
[2] = target: CXCR2 on THP-1 cells (human (endogenous in THP-1)) (UniProt P25025)
CXCL5-Fc fusion protein = CXCL5-Fc fusion protein (UniProt P42830); assay: SDS-PAGE under reducing and non-reducing conditions; purified proteins separated under reducing and non-reducing conditions, Coomassie Blue staining
[3] = n = 3, parent: est. 100000, read off a plot

Chain of CXCL1^1-Fc^1 (P09341 whole entry): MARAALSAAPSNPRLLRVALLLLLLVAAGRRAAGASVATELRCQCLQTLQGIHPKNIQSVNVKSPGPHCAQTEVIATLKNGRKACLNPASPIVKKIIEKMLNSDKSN
Chain of CXCL1^1-Fc^2 (P09341 whole entry, looked up, tested part not stated): as the sequence (P09341 whole entry) above

Row | Substance | response (CXCR2 on THP-1 cells; [3]) | response (CXCR2 on THP-1 cells; parent: 99.9) | IC50 of inhibition of THP-1 cell migration toward PDAC conditioned medium (Boyden chamber) [2] | also measured
1 | CXCL1-Fc fusion protein (from UniProt P09341 35-107) |  |  |  | fold higher mean fluorescence intensity per cell than CXCL1^1-Fc^2 or CXCL1^1-Fc^1 [1]: 3 fold and 4 fold; stoichiometry N (CXCL1-Fc fusion protein): 2
2 | CXCL1-Fc fusion protein (from UniProt P09341) CXCL1-Fc chain:T366Y; Fc chain:Y407T | 19000 MFI | 98.5% |  | 
3 | CXCL1-Fc fusion protein (from UniProt P09341) T366Y | 22000 MFI | 97.9% |  | 
4 | CXCL1^1-Fc^1 (from UniProt P09341 35-107) (Fc fusion) |  |  | 0.211 µM | 
5 | CXCL1^1-Fc^2 (from UniProt P09341 35-107) (Fc fusion) |  |  | 0.028 µM | 
6 | CXCL5-Fc fusion protein (from UniProt P42830 37-114) |  |  |  | stoichiometry N (CXCL5-Fc fusion protein): 2

From paper PMC12108577
